From patent US8246957 (dated 2012)

Experiments:
Assay in all cases: cell-based or functional assay
[1] = biological target: gp120 of HIV-1 primary isolate Ug046 (clade D) (HIV-1 strain Ug046)
[2] = biological target: T1, gp120 of HIV-1 primary isolate ZA009 (clade C) (HIV-1 strain ZA009)
[3] = biological target: gp120 of HIV-1 primary isolate strain 23135 (clade B) (HIV-1 strain 23135)
[4] = biological target: T1, gp120 of HIV-1 primary isolate ZA009 …; remark: listed apart in the source

B1: Fv JL427 (scFv)
scFv: QSVLTQPPSVSGAPGQRVTISCSGSSSNFGLNYVTWQGHFPGTAPKLLIYRNDQRPLGVPARFSGSKSGTSASLAISGLRSEDEADYYCQSYDNSLSGWVFGGGYQLYVLGSSGGGGSGGGGSGGSAQVQLQQSGGGLVQPGRSLRLSCAASGFTFSSYGMHWVRQAPGKGLEWVSYIGRSGSHTNYADSVKGRFTISRDNSKNTLYLQINSLRAEDTAVYYCARGLPNYGMDIWGQGTTVTVSS
- IC50, HIV-1 neutralization (p24, PBMC hosts) [1]: 5.5 µg Ab fragment/ml
- IC90, HIV-1 neutralization (p24, PBMC hosts) [1]: 12.7 µg Ab fragment/ml
- IC50, HIV-1 neutralization (p24, PBMC hosts) [2]: 0.3 µg Ab fragment/ml
- IC90, HIV-1 neutralization (p24, PBMC hosts) [2]: 5.7 µg Ab fragment/ml
- IC50, HIV-1 neutralization (p24, PBMC hosts) [3]: 22.4 µg Ab fragment/ml
- IC90, HIV-1 neutralization (p24, PBMC hosts) [3]: 36.7 µg Ab fragment/ml
- IC50, HIV-1 neutralization, independent preparations (N=3, mean and s.d.) [4]: 0.3 µg/mL
